# According to patent publication US20230295310A1 (ABCELLERA BIOLOGICS, published 2023):
# Numbering of substitutions follows the chain as printed.
# B1: mAb 287 (antibody, V domains shown)
# VH: EVQLVESGGGVVRPGGSLRLSCAASGFTFDDYGMSWVRQAPGKGLEWVSGISWNGGSTGYADSVKGRFTISRDNAKNSLYLQMNSLRAEDTALYHCARDGVPVVKRRYYYYYMDVWGKGTTVTVSS
# VL: EIVLTQSPDFQSVTPKEKVTITCRASQSIGSSLHWYQQKPDQSPKLLIKYASQSFSGVPSRFSGSGSGTDFTLTINSLEAEDAATYYCHQSASLPQTFGQGTKVEIK
# notes: VH/VL only
# B2: mAb 141 (antibody, V domains shown)
# VH: QVQLVQSGAEVKKPGASVKVSCKASGYTFTSYYIHWVRQAPGQGLDWMGIINPSGGITGYAQKLQGRVTMTRDTSTTTVYMELSSLRSDDTAVYYCARGVRGNYYYYYMDVWGKGTTVTVSS
# VL: B1 VL with S32K, T72N, Y86F, A92S, S93G, Q96Y, V104L
# B3: mAb 286 (antibody, V domains shown)
# VH: B1 VH with Q3K
# VL: B1 VL with S65R, A92G
# notes: VH/VL only
# B4: mAb 145 (antibody, V domains shown)
# VH: B2 VH with S31N, L64F
# VL: B1 VL with S32K, Y50F, T72N, A80P, Y86F, A92S, S93G, Q96Y, V104L
# B5: mAb 126 (antibody, V domains shown)
# VH: EVQLVESGGGLVQPGRSLRLSCAASGFTFNDYTMHWVRQVPGKGLEWVSGISWNSGSIDYADSVKGRFTISRDNAKNSLYLQMNSLRAEDTALYYCAKDSSGYGYYYYYYMDVWGKGTTVTVSS
# VL: EIVMTQSPATLSVSPGERATLSCRASQSVSINLAWYQQKPGQAPRLLIYGASTRATGIPARFSGSGSGTEFTLTISSLQSEDFAVYYCQLYHNWPHFGQGTRLEIK
# B6: mAb 172 (antibody, V domains shown)
# VH: B5 VH with A23T, A24T, N30D, G50D, I58V, D59G, A97V, Y105H, Y107F, Y108H
# VL: DIQMTQSPSSLSASVGDRVTITCRASQSISNYLNWYQVKPGKAPKVLIYAASSLQSGVPSRFSGSGSGTDFTLTISSLQPEDFVSYYCHQSYNAPITFGQGTRLESK
# notes: VH/VL only
# B7: mAb 119 (antibody, V domains shown)
# VH: B5 VH with N30D, V40A, D59G, A97S, Y107L, Y108N, Y110S, M111L
# VL: EIVMTQSPATLSVSPGERATLSCRASQSVSNLAWYQQKPGQAPRLLIYGASTRATGIPARFSGSGSGTEFTLTISSLQSEDFAVYYCQQYNNWPHFGQGTRLQIK
# B8: mAb 162 (antibody, V domains shown)
# VH: B5 VH with N30D, D31N, T33A, V40A, D59G, Q82E, M83L, Y108N
# VL: B5 VL with S30R, I31S, R61K, L90Y, H92Y
# B9: mAb 160 (antibody, V domains shown)
# VH: B5 VH with A24V, D59G, Y95F, Y105H, K116R
# VL: B5 VL with S30R, I31K, H92N
# B10: mAb 159 (antibody, V domains shown)
# VH: B5 VH with D31G, I58V, D59G, Y80F, Y105H
# VL: B5 VL with S30R, I31N, V85L, H92N
# B11: mAb 173 (antibody, V domains shown)
# VH: B5 VH with N30D, G50D, I58V, D59G, A97V, Y105H, Y107F, Y108H
# VL: B6 VL with A94T, S106I
# notes: VH/VL only
# B12: mAb 273 (antibody, V domains shown)
# VH: EVQLVESGGGLVQPGESLKLSCTASGFTFSVSAIHWVRQASGKGLEWVGRIRSKANSYATAYVASVKGRFTLSRDDSKNTAYLQMNSLKTEDTAVYYCSSYYFVSGTYYNHWGQGTLVTVSS
# VL: DIQMTQSPSSLSASVGDRVTITCRASQGIRYDLGWYQQKPGRAPKRLIHSVSSLQSGVPSRFSGSGSGTEFTLTISSLQPEDFATYYCLQHNVNPCTFGQGTKLEIK
# notes: VH/VL only
# B13: mAb 127 (antibody, V domains shown)
# VH: EVQLVESGGGLVKTGGSHRLSCVASGFSFKKAWMNWVRQAPGKGLEWVGRIKRNSDGGTTDYAAPVKGRFILSRDDSKNTLYLQMNSLKTEDTAVYYCTTLDSSSWYVGYYYMDVWGKGTTVTVSS
# VL: DIQMTQSPSSVSASVGDRVTITCRASQDINNWLAWYQQKPGKAPKILIYTASNLQSGVPSRFSGSGSGTDFTLTISTLQPEDFATYFCQQAHGLPITFGQGTRLEIK
# B14: mAb 130 (antibody, V domains shown)
# VH: B13 VH with H18L, T59A, G68D, I71T
# VL: B13 VL with Q3H, V15L, I21F, K39R, I46L, N53S, T77S, F87Y, G93S, E105G
# B15: mAb 129 (antibody, V domains shown)
# VH: B13 VH with G10D, H18L, S55T, T59A, G68D, I71T
# VL: DIHMTQSPSSVSASLGDRVTFTCRASQDINNWLAWYQQKPGKAPRLLIYTASSLQSGVPSRFSGSGSGTDFTLTISSLQPDDFATYYCQQAHSLPITFGQGTRLGIE
# B16: mAb 285 (antibody, V domains shown)
# VH: EVQLLESGGGLGQPGGSLRLSCAASGFTFSNYAMSWVRQAPGKGLEWVSVISGSGGDKNYADSVKGRFTISRDNSKNTLYLQMNSLRAEDTAVYYCAKKYSYYYYYMDVWGKGTTVTVSS
# VL: SYELTQPLSVSVALGQTARITCGGNNIGSKDVHWYQQKPGQAPVLVIYRDSNRPSGIPERFSGSNSGNTATLTISSAQAGDEADYYCQVWDSRTAVFGGGTQLTAL
# notes: VH/VL only
# B17: mAb 136 (antibody, V domains shown)
# VH: QVQLVESGGGVVQPGRSLRLSCAASGFTFSIYGMHWVRQAPGKGLEWVAVIWHDGSNKYYADSVKGRFTISRDNSKNTLYLQMNSLRAEDTAVYYCARTGITGTKAYFYFDYWGQGTLVTVSS
# VL: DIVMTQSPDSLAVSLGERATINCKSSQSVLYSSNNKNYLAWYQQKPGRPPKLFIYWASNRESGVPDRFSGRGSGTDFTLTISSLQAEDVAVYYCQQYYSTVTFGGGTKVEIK
# B18: mAb 142 (antibody, V domains shown)
# VH: B17 VH with I31S, H53Y, K105T, Y112S
# VL: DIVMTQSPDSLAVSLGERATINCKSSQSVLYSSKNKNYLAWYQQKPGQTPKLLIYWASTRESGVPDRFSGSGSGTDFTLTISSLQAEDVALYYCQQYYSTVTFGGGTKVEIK
# B19: mAb 137 (antibody, V domains shown)
# VH: QVQLVESGGGVVQPGRSLRLSCAASGFTFSTYGMHWVRQAPGKGLEWVAVIWYDGSHKYYADSVKGRFTISRDNSKKTLYLQMNSLRAEDTGIYYCARTGISGNMSYFYFDHWGQGILVTVSS
# VL: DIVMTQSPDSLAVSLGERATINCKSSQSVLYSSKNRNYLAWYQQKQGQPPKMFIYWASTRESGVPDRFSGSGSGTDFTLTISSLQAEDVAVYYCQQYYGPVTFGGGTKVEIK
# Experiments:
# [1] = target: T1, human CD3 expressed on cells (Jurkat cells; human primary T cells) (human, UniProt P07766 23-207; P04234 22-171; P09693 23-182); assay: flow cytometry, 25 nM, Jurkat cells
# T1 construct: whole, on cells
# Protocol: (§1) Purified antibodies were confirmed to bind CD3 expressed on cells using the CytoFLEX S or LX flow cytometers (Beckman Coulter). Antibodies were diluted to 25 nM in FACS buffer (PBS+2% FBS) and were incubated with CD3-expressing cells for 30 minutes at 4° C. […] The median fluorescence intensity of the binding signal for each antibody was normalized to the isotype control to obtain a fold over isotype value. An antibody with a fold over isotype (FOI) of ≥10 was considered to be positive for binding.
# [2] = target: T2, cynomolgus monkey CD3 expressed on cyno primary T cells (cynomolgus monkey, UniProt Q95LI5 22-198; Q95LI8 22-171; Q95LI7 23-181); assay: flow cytometry, cyno primary T cells
# T2 construct: whole, on cells; CD3 complex on purified cynomolgus monkey CD3 pan T cells; also called cyno CD3
# Protocol: as §1
# [3] = target: T1, human CD3 expressed on cells (Jurkat …); assay: flow cytometry, 25 nM, human primary T cells
# Protocol: as §1
# [4] = target: T3, human CD3 expressed on cells (human, UniProt P07766 23-207; P04234 22-171; P09693 23-182); assay: flow cytometry, 25 nM
# T3 construct: whole, on cells; CD3 complex on Jurkat cells and on human primary T cells
# Summary of the method: (§2)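 Values are fold over isotype: median fluorescence intensity of each antibody relative to isotype control after a 30-minute, 4° C incubation at 25 nM with CD3-bearing cells in PBS containing 2% FBS.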
# [5] = target: T4, cynomolgus monkey CD3 expressed on primary T cells (cynomolgus monkey, UniProt Q95LI5 22-198; Q95LI8 22-171; Q95LI7 23-181); assay: flow cytometry, 25 nM, cyno primary T cells
# T4 construct: whole, on cells; CD3 complex on purified cynomolgus monkey T cells; also called cyno CD3
# Summary of the method: as §2
# T4 sequence (Q95LI5 22-198, chain 1 of 3): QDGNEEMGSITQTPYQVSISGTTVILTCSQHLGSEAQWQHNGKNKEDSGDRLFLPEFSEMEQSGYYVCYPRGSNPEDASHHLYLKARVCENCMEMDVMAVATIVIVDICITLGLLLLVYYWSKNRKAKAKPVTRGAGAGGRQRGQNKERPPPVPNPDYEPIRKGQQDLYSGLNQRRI
# T4 sequence (Q95LI8 22-171, chain 2 of 3): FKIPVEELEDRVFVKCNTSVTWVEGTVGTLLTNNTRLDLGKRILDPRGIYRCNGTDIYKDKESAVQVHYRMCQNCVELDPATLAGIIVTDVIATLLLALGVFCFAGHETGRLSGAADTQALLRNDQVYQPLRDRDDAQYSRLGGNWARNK
# T4 sequence (Q95LI7 23-181, chain 3 of 3): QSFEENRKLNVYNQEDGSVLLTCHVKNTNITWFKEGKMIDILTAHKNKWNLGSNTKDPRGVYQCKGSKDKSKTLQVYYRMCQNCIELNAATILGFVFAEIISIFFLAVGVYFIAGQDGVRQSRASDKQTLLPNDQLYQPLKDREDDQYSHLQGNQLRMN
# T2 sequence (Q95LI5 22-198, chain 1 of 3): as the sequence (Q95LI5 22-198, chain 1 of 3) above
# T2 sequence (Q95LI8 22-171, chain 2 of 3): as the sequence (Q95LI8 22-171, chain 2 of 3) above
# T2 sequence (Q95LI7 23-181, chain 3 of 3): as the sequence (Q95LI7 23-181, chain 3 of 3) above
# T1 sequence (P07766 23-207, chain 1 of 3): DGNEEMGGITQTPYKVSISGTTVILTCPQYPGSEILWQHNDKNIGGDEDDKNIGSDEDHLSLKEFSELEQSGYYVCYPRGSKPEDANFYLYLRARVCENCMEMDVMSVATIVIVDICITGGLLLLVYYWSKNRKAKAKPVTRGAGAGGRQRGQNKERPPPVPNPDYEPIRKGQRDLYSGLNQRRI
# T1 sequence (P04234 22-171, chain 2 of 3): as the sequence (Q95LI8 22-171, chain 2 of 3) above, with V5I, K15N, V20I, T32S, N33D, N34I, A64T, N74S, L83V, R141H counted along it
# T1 sequence (P09693 23-182, chain 3 of 3): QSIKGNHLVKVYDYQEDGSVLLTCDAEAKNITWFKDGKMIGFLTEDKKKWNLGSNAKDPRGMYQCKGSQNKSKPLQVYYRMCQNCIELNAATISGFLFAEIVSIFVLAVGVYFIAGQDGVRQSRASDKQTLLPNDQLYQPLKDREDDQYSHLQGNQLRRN
# T3 sequence (P07766 23-207, chain 1 of 3): as the sequence (P07766 23-207, chain 1 of 3) above
# T3 sequence (P04234 22-171, chain 2 of 3): as the sequence (Q95LI8 22-171, chain 2 of 3) above, with V5I, K15N, V20I, T32S, N33D, N34I, A64T, N74S, L83V, R141H counted along it
# T3 sequence (P09693 23-182, chain 3 of 3): as the sequence (P09693 23-182, chain 3 of 3) above
Binder,Binding (FOI) [1] [FOI],binding result [2],Binding (FOI) [3] [FOI],Human primary T Cell Binding (FOI) [4] [FOI],Jurkat Cell Binding (FOI) [4] [FOI],binding result [5]
B1,156,no binding (tested: FOI <10 (FOI >=10 = positive); 25 nM),107,,,
B2,,,,310,183,no binding (tested: FOI >=10 = positive)
B3,232,no binding (tested: FOI <10 (FOI >=10 = positive); 25 nM),185,,,
B4,,,,217,191,no binding (tested: FOI >=10 = positive)
B5,,,,97.6,97,no binding (tested: FOI >=10 = positive)
B6,111,,167,,,
B7,,,,95.4,90.4,no binding (tested: FOI >=10 = positive)
B8,,,,160,111,no binding (tested: FOI >=10 = positive)
B9,,,,169,115,no binding (tested: FOI >=10 = positive)
B10,,,,171,125,no binding (tested: FOI >=10 = positive)
B11,109,,169,,,
B12,53.1,,24.2,,,
B13,,,,172,155,no binding (tested: FOI >=10 = positive)
B14,,,,165,155,no binding (tested: FOI >=10 = positive)
B15,,,,169,157,no binding (tested: FOI >=10 = positive)
B16,232,no binding (tested: FOI <10 (FOI >=10 = positive); 25 nM),229,,,
B17,,,,86,90.9,no binding (tested: FOI >=10 = positive)
B18,,,,59.6,65.5,no binding (tested: FOI >=10 = positive)
B19,,,,158,151,no binding (tested: FOI >=10 = positive)
